Results from article PMC5499804.

Assays:
Test in all cases: MST
[1] = molecular target: T1, DDX21 full length (1-783) (Homo sapiens, UniProt Q9NR30 1-783)
T1 sequence: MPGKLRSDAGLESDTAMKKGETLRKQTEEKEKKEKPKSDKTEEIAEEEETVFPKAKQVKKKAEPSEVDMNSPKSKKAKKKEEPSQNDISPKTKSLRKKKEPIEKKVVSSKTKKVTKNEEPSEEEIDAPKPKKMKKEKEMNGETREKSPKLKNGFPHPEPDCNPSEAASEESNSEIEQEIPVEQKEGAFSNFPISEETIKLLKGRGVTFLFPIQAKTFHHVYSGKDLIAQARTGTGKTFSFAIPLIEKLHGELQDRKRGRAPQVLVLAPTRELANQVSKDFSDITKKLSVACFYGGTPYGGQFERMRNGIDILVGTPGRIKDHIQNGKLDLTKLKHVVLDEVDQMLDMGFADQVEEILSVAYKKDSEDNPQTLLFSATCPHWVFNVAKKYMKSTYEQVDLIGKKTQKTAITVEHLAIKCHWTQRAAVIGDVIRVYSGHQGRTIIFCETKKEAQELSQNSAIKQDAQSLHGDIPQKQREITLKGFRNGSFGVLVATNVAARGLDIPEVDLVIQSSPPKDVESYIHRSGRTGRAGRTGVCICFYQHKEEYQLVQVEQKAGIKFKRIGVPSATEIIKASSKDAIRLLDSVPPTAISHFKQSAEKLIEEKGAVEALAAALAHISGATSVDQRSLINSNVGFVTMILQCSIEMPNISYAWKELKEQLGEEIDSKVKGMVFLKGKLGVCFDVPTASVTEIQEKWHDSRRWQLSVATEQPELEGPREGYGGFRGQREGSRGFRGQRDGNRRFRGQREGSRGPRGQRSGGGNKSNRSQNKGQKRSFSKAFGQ

[2] = molecular target: T2, DDX21 m4 (Homo sapiens, UniProt Q9NR30 1-783, P754Y;R755E;Q757I;R758Q)
T2 sequence: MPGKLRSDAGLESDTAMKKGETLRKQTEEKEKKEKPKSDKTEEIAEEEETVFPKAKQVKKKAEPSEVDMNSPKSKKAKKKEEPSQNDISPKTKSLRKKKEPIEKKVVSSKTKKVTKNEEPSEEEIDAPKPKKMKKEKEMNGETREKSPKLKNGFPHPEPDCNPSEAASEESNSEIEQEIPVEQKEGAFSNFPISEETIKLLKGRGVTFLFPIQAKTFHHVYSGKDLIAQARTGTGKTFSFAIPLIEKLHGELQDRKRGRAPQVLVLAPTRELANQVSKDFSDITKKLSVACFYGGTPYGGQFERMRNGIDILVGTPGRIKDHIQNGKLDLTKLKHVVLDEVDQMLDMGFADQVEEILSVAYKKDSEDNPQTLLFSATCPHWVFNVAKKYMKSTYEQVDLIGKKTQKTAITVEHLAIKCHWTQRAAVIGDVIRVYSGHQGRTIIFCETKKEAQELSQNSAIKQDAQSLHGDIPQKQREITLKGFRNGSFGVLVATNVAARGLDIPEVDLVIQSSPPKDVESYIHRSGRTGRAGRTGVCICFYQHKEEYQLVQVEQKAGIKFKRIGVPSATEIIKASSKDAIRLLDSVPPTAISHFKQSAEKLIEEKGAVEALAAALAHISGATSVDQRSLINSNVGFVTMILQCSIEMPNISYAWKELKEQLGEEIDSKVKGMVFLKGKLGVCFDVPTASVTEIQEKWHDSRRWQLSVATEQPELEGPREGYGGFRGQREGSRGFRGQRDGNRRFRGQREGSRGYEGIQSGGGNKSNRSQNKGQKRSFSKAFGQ

[3] = molecular target: T3, DDX21(574-783) (Homo sapiens, UniProt Q9NR30 574-783)
T3 sequence: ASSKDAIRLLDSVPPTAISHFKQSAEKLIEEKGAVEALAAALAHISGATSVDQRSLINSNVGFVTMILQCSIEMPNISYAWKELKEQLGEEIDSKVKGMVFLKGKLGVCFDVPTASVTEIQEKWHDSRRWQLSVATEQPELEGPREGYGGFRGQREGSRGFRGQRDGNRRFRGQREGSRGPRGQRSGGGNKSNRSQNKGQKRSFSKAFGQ

[4] = molecular target: T3, DDX21(574-783); remark: listed apart in the source

Binder | Kd [1] [nM] | binding result [2] | Kd [3] [nM] | binding result [1] | binding signal [4]
GUUGGGGCGGGCGUUGGGUUUGGGGGGACG (structured_RNA) [Q2] | 10 ± 0.7 |  |  |  | 
AGGGUGGGCCUGGGAGGGGUGGUGGCCAU (structured_RNA) [hTR(10-43)] | 324 ± 7 | no binding | 149 ± 10 |  | 
GUUGCGCCGCGCGUUGCGUUUGCGCGCACG (ssRNA) [Q2-mutant] |  | no binding |  | no binding | ~1000 fold less affinity than Q2 wild type
